These results are taken from patent publication US20220333113.

Residue numbers refer to the chain shown, from its start. pKd: −log10 of the molar value.

Data set [1] addresses T1, RIG-I CTD (aa 792-925) (Homo sapiens) (UniProt O95786).
T1 sequence: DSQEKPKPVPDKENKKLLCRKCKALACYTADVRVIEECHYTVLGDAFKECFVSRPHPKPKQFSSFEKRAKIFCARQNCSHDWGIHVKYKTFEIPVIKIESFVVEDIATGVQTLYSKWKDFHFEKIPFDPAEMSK
As to the kind of experiment: EMSA. The settings on record: J = PPdU at every J; SB18T0.01 + 20% glycerol, 1 mM DTT, 37 C. Background: In EMSA bound probe runs differently from free probe, usually more slowly.

The target of data set [2] is T2, RIG-I ΔCARDs (aa 229-925) (Homo sapiens) (UniProt O95786).
T2 sequence: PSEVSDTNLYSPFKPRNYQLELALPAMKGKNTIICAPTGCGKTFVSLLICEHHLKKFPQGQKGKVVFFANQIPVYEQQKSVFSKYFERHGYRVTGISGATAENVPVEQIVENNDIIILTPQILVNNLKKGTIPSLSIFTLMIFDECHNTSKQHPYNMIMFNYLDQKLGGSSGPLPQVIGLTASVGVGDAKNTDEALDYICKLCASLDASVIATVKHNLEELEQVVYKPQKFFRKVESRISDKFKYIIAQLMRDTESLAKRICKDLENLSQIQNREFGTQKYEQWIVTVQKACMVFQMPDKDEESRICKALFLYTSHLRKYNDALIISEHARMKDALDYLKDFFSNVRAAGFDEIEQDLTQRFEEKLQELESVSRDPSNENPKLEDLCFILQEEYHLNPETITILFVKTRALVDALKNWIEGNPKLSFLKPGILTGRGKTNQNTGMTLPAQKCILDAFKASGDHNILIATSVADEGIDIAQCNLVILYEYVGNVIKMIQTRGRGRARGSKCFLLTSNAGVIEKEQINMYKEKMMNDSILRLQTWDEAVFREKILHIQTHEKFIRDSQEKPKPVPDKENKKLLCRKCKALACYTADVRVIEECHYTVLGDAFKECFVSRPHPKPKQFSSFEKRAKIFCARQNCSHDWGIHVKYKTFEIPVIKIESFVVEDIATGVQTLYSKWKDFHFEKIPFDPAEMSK
As to the kind of experiment: filter. The settings on record: J = PPdU at every J; SB18T0.01 + 1 mM DTT, 37 C.

Data set [3] has as its target T3, RIG-I N668A (Homo sapiens) (UniProt O95786).
T3 sequence: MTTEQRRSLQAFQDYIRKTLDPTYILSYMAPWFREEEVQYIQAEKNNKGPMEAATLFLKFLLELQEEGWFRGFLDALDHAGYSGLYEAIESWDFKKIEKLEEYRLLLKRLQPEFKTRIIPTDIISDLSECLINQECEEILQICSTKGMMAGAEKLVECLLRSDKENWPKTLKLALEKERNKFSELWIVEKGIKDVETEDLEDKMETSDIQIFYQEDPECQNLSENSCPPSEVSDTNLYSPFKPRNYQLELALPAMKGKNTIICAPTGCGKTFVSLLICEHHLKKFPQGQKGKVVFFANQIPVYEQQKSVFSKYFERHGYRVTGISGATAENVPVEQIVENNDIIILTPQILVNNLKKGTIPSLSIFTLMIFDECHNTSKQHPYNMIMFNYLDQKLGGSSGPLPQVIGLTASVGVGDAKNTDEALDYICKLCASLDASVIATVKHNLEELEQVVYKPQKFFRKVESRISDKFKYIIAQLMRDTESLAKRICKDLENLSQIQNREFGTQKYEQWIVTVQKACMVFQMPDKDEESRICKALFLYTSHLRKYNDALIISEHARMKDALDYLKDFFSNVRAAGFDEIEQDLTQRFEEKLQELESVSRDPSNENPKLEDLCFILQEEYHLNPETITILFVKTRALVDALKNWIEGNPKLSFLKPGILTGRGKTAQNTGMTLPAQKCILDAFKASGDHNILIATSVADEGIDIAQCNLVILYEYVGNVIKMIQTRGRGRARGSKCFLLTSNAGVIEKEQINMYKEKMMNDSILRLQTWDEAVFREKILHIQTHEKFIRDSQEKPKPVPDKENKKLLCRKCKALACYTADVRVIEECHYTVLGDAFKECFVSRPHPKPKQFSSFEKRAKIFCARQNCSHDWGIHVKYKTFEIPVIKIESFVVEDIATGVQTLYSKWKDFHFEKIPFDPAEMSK
As to the kind of experiment: filter. The settings on record: J = PPdU at every J; SB18T0.01 + 1 mM DTT, 37 C.

Data set [4] has as its target T4, RIG-I K858A (Homo sapiens) (UniProt O95786).
T4 sequence: T3 sequence with A668N, K858A
As to the kind of experiment: filter. The settings on record: J = PPdU at every J; SB18T0.01 + 1 mM DTT, 37 C.

In general, pKd refers to −log10 of the Kd, conventionally taken in molar units. On to “ATCTCTGTGTCATGTGTTTTAATGTCAGTTTAATGATGAGG [14832-55_8]”, for which the pKd in data set [1] is 10.72; in data set [2], 10.89; in data set [3], 9.96; in data set [4], 8.54.
